According to patent publication US20240352438A1, “MEANS AND METHODS FOR DETOXIFYING OCHRATOXIN A” (DSM Austria GmbH, priority 2021, published 2024):

Tests used:
[1] = OTA detoxification activity assay (specific activity, fluorescence reduction ex/em 390/450 nm); format: biochemical; details: SEQ ID NO: 1 = 100%
Method in brief: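 Recombinant enzyme preparation with 200 ng/mL OTA in 100 mM sodium phosphate, at pH 6.0 and pH 7.5, 37° C. Degradation followed as the fall in fluorescence at ex/em 390/450 nm. Specific activity taken from the initial linear slope; one unit degrades 1 μmol OTA per min at a starting OTA of […].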

[2] = Enzymatic activity comparison: activity remaining after 65° C. for 10 min at pH 6.0, relative to SEQ ID NO: 1; format: physicochemical
Experimental: To compare the temperature behavior and thermostability of selected enzymes to one another, enzyme was incubated at 65° C. for 10 min at pH 6.0. The enzymatic activity remaining after incubation was compared to the remaining activity of the enzyme of SEQ ID NO: 1 after incubation, the latter being set to 100%, see Table 16.

| Molecule | Specific OTA detoxification activities in % compared to the enzyme of SEQ ID NO: 1, pH 6.0 [1] | Specific OTA detoxification activities in % compared to the enzyme of SEQ ID NO: 1, pH 7.5 [1] | Enzymatic activity remaining after incubation, compared to SEQ ID NO: 1 (set to 100%) [2] |
| --- | --- | --- | --- |
| 119 (protein, exemplary polypeptide) MTTRTRILTAFLSLLAANACAADAAPAAPHTVVLRAARMFDGASGKLVDHPQLTIVGNKIVRIAQGDKAEVPAGAEVVDLGDATLLPGFIDAHVHLSGQSSDNWYGDFFDNMMRFPAEQALRGAYYARITLEAGFTSVRDVGSTDWVALGLRNAIDAGKVPGPRMLVSNYAVGSTGGHADQDPIPPHKLPLAGPLQGVCNGPEECRAAVRYQIKYGANVIKFMPSGGVLSLSDPVDAPELSQDEMNAVIGESHAWGRKVAAHAHGDKAAKMAVAAGVDSIEHGSFIEDDTLRAMKAKNVYLVPTISAIAHVEEKIGTFPPVIAEKGRAAAAHLRQTFRHAVQIGVPIALGTDAGVGAHGSNAREFRYMVENGLTPAQALLAGTANAARLLGTFDRVGTLEAGKLADVVAVPGNPIADITVTERPLFVMKDGVVVRRDAVR | 107% | 101% | 45% |
| 125 (protein, exemplary polypeptide) MTTRTRILTAFLSLLAANACAADAAPAAPHTVVLRAARMFDGASGKLVDHPQLTIVGNKIVRIAQGDKAEVPAGAEVVDLGDATLLPGFIDAHVHLSGQSSDNWYGDFFDNMMRFPAEQALYGAYYARITLEAGFTSVRDVGSTDWVALGLRNAIDAGKVPGPRMLVSNYAVGSTGGHADQDPIPPHKLPLAGPLQGVCNGPEECRAAVRYQIKYGANVIKFMPSGGVLSLSDPVDAPELSQDEMNAVIGESHAWGRKVAAHAHGDKAAKMAVAAGVDSIEHGSFIEDDTLRAMKAKNVYLVPTISAIAHVEEKIGTYPPVIAEKGRAAAAHLRQTFRHAVQIGVPIALGTDAGVGAHGSNAREFRYMVENGLTPAQALLAGTANAARLLGTFDRVGTLEAGKLADVVAVPGNPIADITVTERPLFVMKDGVVVRRDAVR | 58% | 94% | 100% |
| 121 (protein, exemplary polypeptide) MTTRTRILTAFLSLLAANACAADAAPAAPHTVVLRAARMFDGASGKLVDHPQLTIVGNKIVRIAQGDKAEVPAGAEVVDLGDATLLPGFIDAHVHLSGQSSDNWYGDFYDNMMRFPAEQALYGAYYARITLEAGFTSVRDVGSTDWVALGLRNAIDAGKVPGPRMLVSNYAVGSTGGHADQDPIPPHKLPLAGPLQGVCNGPEECRAAVRYQIKYGANVIKFMPSGGVLSLSDPVDAPELSQDEMNAVIGESHAWGRKVAAHAHGDKAAKMAVAAGVDSIEHGSFIEDDTLRAMKAKNVYLVPTISAIAHVEEKIGTFPPVIAEKGRAAAAHLRQTFRHAVQIGVPIALGTDAGVGAHGSNAREFRYMVENGLTPAQALLAGTANAARLLGTFDRVGTLEAGKLADVVAVPGNPIADITVTERPLFVMKDGVVVRRDAVR | 84% | 78% | 40% |
| 127 (protein, exemplary polypeptide) MTTRTRILTAFLSLLAANACAADAAPAAPHTVVLRAARMFDGASGKLVDHPQLTIVGNKIVRIAQGDKAEVPAGAEVVDLGDATLLPGFIDAHVHLSGQSSDNWYGDFFDNMMRFPAEQALYGAYYARITLEAGFTSVRDVGSTDWVALGLRNAIDAGKVPGPRMLVSNYAVGSTGGHADQDPIPPHKLPLAGPLQGVCNGPEECRAAVRYQIKYGANVIKFMPSGGVLSLSDPVDAPELSQDEMNAVIGESHAWGRYVAAHAHGDKAAKMAVAAGVDSIEHGSFIEDDTLRAMKAKNVYLVPTISAIAHVEEKIGTFPPVIAEKGRAAAAHLRQTFRHAVQIGVPIALGTDAGVGAHGSNAREFRYMVENGLTPAQALLAGTANAARLLRTFDRVGTLEAGKLADVVAVPGNPIADITVTERPLFVMKDGVVVRRDAVR | 78% | 82% | 64% |
| 122 (protein, exemplary polypeptide) MTTRTRILTAFLSLLAANACAADAAPAAPHTVVLRAARMFDGASGKLVDHPQLTIVGNKIVRIAQGDKAEVPAGAEVVDLGDATLLPGFIDAHVHLSGQSSDNWYGDFFDNMMRFPAEQALYGAYYARITLEAGFTSVRDVGSTDWVALGLRNAIDAGKVPGPRMLVSNYAVGSTGGHADQDPIPPHKLPLAGPLQGVCNGPEECRAAVRYQIKYGANVIKFMPSGGVLSLSDPVDAPELSPDEMNAVIGESHAWGRKVAAHAHGDKAAKMAVAAGVDSIEHGSFIEDDTLRAMKAKNVYLVPTISAIAHVEEKIGTFPPVIAEKGRAAAAHLRQTFRHAVQIGVPIALGTDAGVGAHGSNAREFRYMVENGLTPAQALLAGTANAARLLGTFDRVGTLEAGKLADVVAVPGNPIADITVTERPLFVMKDGVVVRRDAVR | 59% | 80% | 40% |
| 136 (protein, exemplary polypeptide) MTTRTRILTAFLSLLAANACAADAAPAAPHTVVLRAARMFDGASGKLVDHPQLTIVGNKIVRIAQGDKAEVPAGAEVVDLGDATLLPGFIDAHVHLDGQSSDNWYGDFFDNMMRFPAEQALYGAYYARITLEAGFTSVRDVGSTDWVALGLRNAIDAGKVPGPRMLVSNYAVGSTGGHADQDPIPPHKLPLAGPLQGVCNGPEECRAAVRYQIKYGANVIKFMPSGGVLSLSDPVDAPELSQDEMNAVIGESHAWGRKVAAHAHGDKAAKMAVAAGVDSIEHGSFIEDDTLRAMKAKNVYLVPTISAIAHVEEKIGTFPPVIAEKGRAAAAHLRQTFRHAVQIGVPIALGTDAGVGAHGSNAREFRYMVENGLTPAQALLAGTANAARLLGTFDRVGTLEAGKLADVVAVPGNPIADITVTERPLFVMKDGVVVRRDAVR | 64% | 48% | 36% |
| 128 (protein, exemplary polypeptide) MTTRTRILTAFLSLLAANACAADAAPAAPHTVVLRCARMFDGASGKLVDHPQLTIVGNKIVRIAQGDKAEVPAGAEVVDLGDATCLPGFIDAHVHLSGQSSDNWYGDFFDNMMRFPAEQALYGAYYARITLEAGFTSVRDVGSTDWVALGLRNAIDAGKVPGPRMLVSNYAVGSTGGHADQDPIPPHKLPLAGPLQGVCNGPEECRAAVRYQIKYGANVIKFMPSGGVLSLSDPVDAPELSQDEMNAVIGESHAWGRKVAAHAHGDKAAKMAVAAGVDSIEHGSFIEDDTLRAMKAKNVYLVPTISAIAHVEEKIGTFPPVIAEKGRAAAAHLRQTFRHAVQIGVPIALGTDAGVGAHGSNAREFRYMVENGLTPAQALLAGTANAARLLGTFDRVGTLEAGKLADVVAVPGNPIADITVTERPLFVMKDGVVVRRDAVR | 67% | 73% | 84% |
| 120 (protein, exemplary polypeptide) MTTRTRILTAFLSLLAANACAADAAPAAPHTVVLRAARMFDGASGKLVDHPQLTIVGNKIVRIAQGDKAEVPAGAEVVDLGDATLLPGFIDAHVHLSGQSSDNWYGDFFDNMMRFPAEQALYGAYWARITLEAGFTSVRDVGSTDWVALGLRNAIDAGKVPGPRMLVSNYAVGSTGGHADQDPIPPHKLPLAGPLQGVCNGPEECRAAVRYQIKYGANVIKFMPSGGVLSLSDPVDAPELSQDEMNAVIGESHAWGRKVAAHAHGDKAAKMAVAAGVDSIEHGSFIEDDTLRAMKAKNVYLVPTISAIAHVEEKIGTFPPVIAEKGRAAAAHLRQTFRHAVQIGVPIALGTDAGVGAHGSNAREFRYMVENGLTPAQALLAGTANAARLLGTFDRVGTLEAGKLADVVAVPGNPIADITVTERPLFVMKDGVVVRRDAVR | 85% | 90% | 23% |
| 137 (protein, exemplary polypeptide) MTTRTRILTAFLSLLAANACAADAAPAAPHTVVLRAARMFDGASGKLVDHPQLTIVGNKIVRIAQGDKAEVPAGAEVVDLGDATLLPGFIDAHVHLNGQSSDNWYGDFFDNMMRFPAEQALYGAYYARITLEAGFTSVRDVGSTDWVALGLRNAIDAGKVPGPRMLVSNYAVGSTGGHADQDPIPPHKLPLAGPLQGVCNGPEECRAAVRYQIKYGANVIKFMPSGGVLSLSDPVDAPELSQDEMNAVIGESHAWGRKVAAHAHGDKAAKMAVAAGVDSIEHGSFIEDDTLRAMKAKNVYLVPTISAIAHVEEKIGTFPPVIAEKGRAAAAHLRQTFRHAVQIGVPIALGTDAGVGAHGSNAREFRYMVENGLTPAQALLAGTANAARLLGTFDRVGTLEAGKLADVVAVPGNPIADITVTERPLFVMKDGVVVRRDAVR | 86% | 93% | 48% |
| 124 (protein, exemplary polypeptide) MTTRTRILTAFLSLLAANACAADAAPAAPHTVVLRAARMFDGASGKLVDHPQLTIVGNKIVRIAQGDKAEVPAGAEVVDLGDATLLPGFIDAHVHLSGQSSDNWYGDFFDNMMRFPAEQALYGAYYARITLEAGFTSVRDVGSTDWVALGLRNAIDAGKVPGPRMLVSNYAVGSTGGHADQDPIPPHKLPLAGPLQGVCNGPEECRAAVRYQIKYGANVIKFMPSGGVLSLSDPVDAPELSQDEMNAVIGESHAWGRKVAAHAHGDKAAKMAVAAGVDSIEHGSFIEDDTLRAMKAKNVYLVPTISAIAHVEEKIGYFPPVIAEKGRAAAAHLRQTFRHAVQIGVPIALGTDAGVGAHGSNAREFRYMVENGLTPAQALLAGTANAARLLGTFDRVGTLEAGKLADVVAVPGNPIADITVTERPLFVMKDGVVVRRDAVR | 87% | 78% | 42% |
